The values that follow come from patent US20040073001A1 (Kyowa Kirin, published 2004).

Assay [1] deals with T1, GAL4-β-catenin fusion protein (GAL4 BD fused with mouse β-catenin armadillo domain, residues 128 to 683) (yeast; mouse, UniProt P04386 1-147; Q02248 128-683).
T1 construct: Bait of the yeast two-hybrid system; also called mβ-catenin arm; β-catenin arm bait plasmid
Briefly: yeast two-hybrid screening, HIS3 and β-galactosidase reporters. The method, then:
Screening was carried out with […] mouse fetal (Swiss Webster/NIH mouse; 17-day embryo) cDNA library, which is a library to be used for the two-hybrid system and provided by Clontech. This cDNA library contains vector pGAD10 (Clontech) with cDNA insert and, as a selection marker, LEU2 gene involved in leucine biosynthesis in yeast, and can express fusion proteins of GAL4 AD and cDNA-encoding proteins through ADH1 promoter. Specific method for the screening was conducted according to the manual attached to the library from Clontech as follows.
Specifically, both mouse fetal cDNA library for the two-hybrid system and plasmid GAL4-β-catenin prepared in (1) were introduced in yeast Saccharomyces cerevisiae HF7C strain (Clontech). HF7C strain is a yeast strain that is tryptophan-, leucine-, and histidine-auxotrophic. The strain has HIS3 gene on the chromosome wherein the gene is involved in histidine biosynthesis and has been ligated downstream of GAL1 promoter to which GAL4 BD can bind, as well as E. coli-derived β-galactosidase gene lacZ ligated downstream of a nucleotide sequence to which GAL4 BD can bind as reporter genes (Gene 212: 197 (1998)). A transformant containing both plasmid GAL4-β-catenin and cDNA clone of a protein that binds to mβ-catenin arm and expresses the respective fusion proteins, is non-auxotrophic for histidine and is positive in β-galactosidase activity. […]

Assay [2] deals with T2, GAL4 BD fusion of the C-terminal half of the β-catenin arm (residues 391 to 664 of mouse β-catenin, armadillo … (yeast; mouse, UniProt P04386 1-147; Q02248 391-664).
T2 construct: Two-hybrid bait; also called C-terminal half of the β-catenin arm (armadillo repeats 7-12)
Briefly: yeast two-hybrid, β-galactosidase activity. From the text: (§1) The respective bait plasmids were cotransfected with the B9L cDNA fragment-expressing clone obtained by the two-hybrid system in Example 1 into yeast HF7C strain, and the binding between the B9L protein and the respective β-catenin partial fragments were examined by the existence of β-galactosidase activity in the transformants. […] Thus, it was considered that the B9L protein binds to the N-terminal region of β-catenin arm (armadillo repeats 1-6).
(§2) In order to further examine which region of the B9L protein binds to the β-catenin arm, two-hybrid system was performed as follows. […] Each plasmid was cotransfected with the β-catenin arm bait plasmid prepared in Example 1 into yeast HF7C strain, and the binding of each B9L protein partial fragment and β-catenin arm was examined based on the presence or absence of β-galactosidase activity in the transformants. […] Thus, the B9L protein was indicated to bind to the β-catenin arm at the region of residues 292-439 in the amino acid sequence represented by SEQ ID NO: 2.

Assay [3] has as its target T3, GAL4 BD fusion of the N-terminal half of the β-catenin arm (residues 141 to 390 of mouse β-catenin, armadillo … (yeast; mouse, UniProt P04386 1-147; Q02248 141-390).
T3 construct: Two-hybrid bait; also called N-terminal half (armadillo repeats 1-6) of the β-catenin arm
The experiment in a line: yeast two-hybrid, β-galactosidase activity.
Source text: as §1, §2

The target of assay [4] is T4, GAL4 BD fusion of almost the entire β-catenin arm (residues 141 to 664 of mouse β-catenin) (yeast; mouse, UniProt P04386 1-147; Q02248 141-664).
T4 construct: Two-hybrid bait; also called almost entire region
Briefly: yeast two-hybrid, β-galactosidase activity.
Source text: as §1, §2

Assay [5] deals with T5, GFP-B9L (full-length), full-length B9L cDNA in pEGFP-C2 (plasmid pEGFP-C2B9L) (mouse, UniProt Q67FY2 1-1494).
T5 construct: expressed in mouse 3T3 cells; also called full-length B9L protein; not shown: green fluorescent protein (GFP) as encoded by vector pEGFP-C2 (Clontech)
T5 sequence: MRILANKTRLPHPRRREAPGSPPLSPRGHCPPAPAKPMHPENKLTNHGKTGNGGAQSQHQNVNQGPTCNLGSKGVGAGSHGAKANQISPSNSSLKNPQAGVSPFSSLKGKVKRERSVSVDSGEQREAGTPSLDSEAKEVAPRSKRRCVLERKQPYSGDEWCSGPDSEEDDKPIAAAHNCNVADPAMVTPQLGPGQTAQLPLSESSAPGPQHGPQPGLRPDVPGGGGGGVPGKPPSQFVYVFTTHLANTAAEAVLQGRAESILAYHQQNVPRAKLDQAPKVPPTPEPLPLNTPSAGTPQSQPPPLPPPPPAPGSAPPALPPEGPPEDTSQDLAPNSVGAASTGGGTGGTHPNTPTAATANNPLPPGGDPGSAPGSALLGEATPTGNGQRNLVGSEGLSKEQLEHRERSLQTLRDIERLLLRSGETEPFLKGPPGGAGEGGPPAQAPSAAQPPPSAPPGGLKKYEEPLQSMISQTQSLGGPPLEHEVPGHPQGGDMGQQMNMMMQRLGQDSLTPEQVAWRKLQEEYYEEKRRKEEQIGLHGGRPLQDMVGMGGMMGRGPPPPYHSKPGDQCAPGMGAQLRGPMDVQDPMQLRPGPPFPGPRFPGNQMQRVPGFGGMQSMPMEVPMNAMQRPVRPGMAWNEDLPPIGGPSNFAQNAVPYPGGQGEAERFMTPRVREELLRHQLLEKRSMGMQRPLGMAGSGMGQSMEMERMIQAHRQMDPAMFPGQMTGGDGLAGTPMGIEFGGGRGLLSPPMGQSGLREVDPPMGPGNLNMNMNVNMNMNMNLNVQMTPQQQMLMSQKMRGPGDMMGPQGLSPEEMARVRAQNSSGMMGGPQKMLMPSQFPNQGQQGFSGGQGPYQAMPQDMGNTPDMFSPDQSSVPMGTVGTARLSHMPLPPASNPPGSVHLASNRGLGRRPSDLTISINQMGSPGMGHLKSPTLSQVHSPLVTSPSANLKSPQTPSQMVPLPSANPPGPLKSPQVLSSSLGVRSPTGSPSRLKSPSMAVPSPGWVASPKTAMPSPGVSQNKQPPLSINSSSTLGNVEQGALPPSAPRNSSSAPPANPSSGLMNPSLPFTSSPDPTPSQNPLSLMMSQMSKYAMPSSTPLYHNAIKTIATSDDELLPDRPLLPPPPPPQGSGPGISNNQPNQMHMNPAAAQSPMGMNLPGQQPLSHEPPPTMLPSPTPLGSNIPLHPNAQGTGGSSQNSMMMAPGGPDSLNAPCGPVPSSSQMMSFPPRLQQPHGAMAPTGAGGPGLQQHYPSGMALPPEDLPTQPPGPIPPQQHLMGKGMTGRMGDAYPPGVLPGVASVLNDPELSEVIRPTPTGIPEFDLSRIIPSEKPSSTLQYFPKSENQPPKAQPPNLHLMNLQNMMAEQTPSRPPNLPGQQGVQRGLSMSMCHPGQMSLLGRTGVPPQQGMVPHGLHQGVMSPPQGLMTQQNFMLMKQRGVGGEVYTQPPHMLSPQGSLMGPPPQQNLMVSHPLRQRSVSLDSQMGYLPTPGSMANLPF
Briefly: co-localisation in the nucleus of mouse 3T3 cells, fluorescence microscopy (indirect). The procedure:
The plasmids for the expression of GFP-B9L and S33Y β-catenin constructed in Example 3 were transfected alone or together into mouse NIH 3T3 cells using Effectene (QIAGEN), and were forcedly expressed. GFP expression vector pEGFP-C2, as a control, was also transfected into mouse NIH 3T3 cells and was forcedly expressed. After 24 hours, the cells were fixed with formaldehyde, stained with anti-β-catenin antibody, reacted with rhodamine isothiocyanate (RITC)-labeled anti-rabbit IgG antibody, and observed by fluorescence microscopy to detect S33Y β-catenin in the cell. GFP-B9L was directly detected by observation of GFP under fluorescence microscopy (with the use of-FITC filter).
The full-length B9L cDNA obtained in Example 1 was inserted into the ECORI-SalI site of pEGFP-C2 to prepare plasmid pEGFP-C2B9L for the expression in animal cells, cotransfected with S33Y β-catenin expression plasmid into mouse 3T3 cells and the plasmids were forcedly expressed as described above, and S33Y β-catenin was. detected in the cells. Similar to theB9L protein fragment obtained by the two hybrid system, both S33Y β-catenin and GFP-B9L (full-length) were localized in the nucleus. Thus, the full-length B9L protein was also confirmed to bind to β-catenin and localizes β-catenin into the nucleus.

B1: GAL4 AD fusion of the B9L cDNA fragment clone obtained by the two-hybrid system (B9L protein residues 245 to 564, SEQ ID NO: 4) (other, not shown: large carriers)
chain: LANTAAEAVLQGRAESILAYHQQNVPRAKLDQAPKVPPTPEPLPLNTPSAGTPQSQPPPLPPPPPAPGSAPPALPPEGPPEDTSQDLAPNSVGAASTGGGTGGTHPNTPTAATANNPLPPGGDPGSAPGSALLGEATPTGNGQRNLVGSEGLSKEQLEHRERSLQTLRDIERLLLRSGETEPFLKGPPGGAGEGGPPAQAPSAAQPPPSAPPGGLKKYEEPLQSMISQTQSLGGPPLEHEVPGHPQGGDMGQQMNMMMQRLGQDSLTPEQVAWRKLQEEYYEEKRRKEEQIGLHGGRPLQDMVGMGGMMGRGPPPPYHSK
notes: Expressed in yeast HF7C as prey of the two-hybrid system; also called B9L cDNA fragment-expressing clone; bc19 like protein fragment
As to B1, the binding result is “binds” in assay [1], “no binding” in assay [2], “binds” in assay [3] and “binds” in assay [4].

B2: Mutated mouse β-catenin S33Y (other, UniProt Q02248 1-781, looked up)
chain: MATQADLMELDMAMEPDRKAAVSHWQQQSYLDYGIHSGATTTAPSLSGKGNPEEEDVDTSQVLYEWEQGFSQSFTQEQVADIDGQYAMTRAQRVRAAMFPETLDEGMQIPSTQFDAAHPTNVQRLAEPSQMLKHAVVNLINYQDDAELATRAIPELTKLLNDEDQVVVNKAAVMVHQLSKKEASRHAIMRSPQMVSAIVRTMQNTNDVETARCTAGTLHNLSHHREGLLAIFKSGGIPALVKMLGSPVDSVLFYAITTLHNLLLHQEGAKMAVRLAGGLQKMVALLNKTNVKFLAITTDCLQILAYGNQESKLIILASGGPQALVNIMRTYTYEKLLWTTSRVLKVLSVCSSNKPAIVEAGGMQALGLHLTDPSQRLVQNCLWTLRNLSDAATKQEGMEGLLGTLVQLLGSDDINVVTCAAGILSNLTCNNYKNKMMVCQVGGIEALVRTVLRAGDREDITEPAICALRHLTSRHQEAEMAQNAVRLHYGLPVVVKLLHPPSHWPLIKATVGLIRNLALCPANHAPLREQGAIPRLVQLLVRAHQDTQRRTSMGGTQQQFVEGVRMEEIVEGCTGALHILARDVHNRIVIRGLNTIPLFVQLLYSPIENIQRVAAGVLCELAQDKEAAEAIEAEGATAPLTELLHSRNEGVATYAAAVLFRMSEDKPQDYKKRLSVELTSSLFRTEPMAWNETADLGLDIGAQGEALGYRQDDPSYRSFHSGGYGQDALGMDPMMEHEMGGHHPGADYPVDGLPDLGHAQDLMDGLPPGDSNQLAWFDTDL
notes: Expressed from pMKITneo in COS-7 or NIH 3T3 cells; also called S33Y β-catenin
Turning to B2, in assay [5], the binding result is “binds”.
